From US20230322927A1 (Regeneron, published 2023)
Residue numbers refer to the chain shown, from its start. Blank lines part the entries; values can stand above or below the binder they belong to.

Columns and labels:
human EGFR on cells [1] = molecular target: T1, human EGFR on cells (human, UniProt P00533 25-1210); test: cell-based or functional assay
human EGFR on cells [2] = molecular target: T1, human EGFR on cells; test: flow cytometry titration on CASKI cells
human CD28 on cells = human CD28 on cells (human, UniProt P10747 19-220); test: cell-based or functional assay
human EGFR on cells [3] = molecular target: T1, human EGFR on cells; test: flow cytometry titration on A375 cells
Experimental: (§1) After incubation, the cells were washed twice with cold PBS containing 1% filtered FBS and a Fluorophore-conjugated anti-human secondary antibody was added to the cells and incubated for an additional 30 minutes. Live/dead dye was added to Human and Cynomolgus T cells incubations. Wells containing no antibody or secondary only were used as a control.
(§2) After incubation with EGFR expressing cells, cells were washed, re-suspended in 200 μL cold PBS containing 1% filtered FBS and analyzed by flow cytometry on a BD FACS Canto II.

human EGFR on cells [4] = molecular target: T1, human EGFR on cells; test: flow cytometry titration on 22RV1 cells
Experimental: as §1, §2

[5] = molecular target: T2, hEGFR(ECD).CPGG.MMH6 (REGN355) (human, UniProt P00533 25-647); test: SPR (Biacore 4000) at 25 C; antibody captured on anti-human Fc, hEGFR.mmH injected
T2 construct: Soluble extracellular domain with a myc-myc-hexahistidine tag; also called hEGFR.mmH; hEGFR.mmh
Experimental: Association was monitored for 5 minutes, and the dissociation of hEGFR.mmH in HBS-EP running buffer was monitored for 10 minutes. All of the binding kinetics experiments were performed at 25° C. Kinetic association (kₐ) and dissociation (kd) rate constants were determined by fitting the real-time sensorgrams to a 1:1 binding model using Scrubber 2.0c curve fitting software.

hCD28.mFc (REGN2012) [6] = molecular target: T3, hCD28.mFc (REGN2012) (human, UniProt P10747 19-152, limits assumed); test: SPR (Biacore T-200) at 25 C; hCD28.mFc captured on anti-mouse Fc, antibody injected
T3 construct: also called Human CD28-mFc; hCD28 with a C-terminal mouse Fc tag; not shown: C-terminal mouse Fc tag

human EGFR on cells [7] = molecular target: T1, human EGFR on cells; test: flow cytometry titration on PEO1 cells
Experimental: as §1, §2

hCD28.mFc (REGN2012) [8] = molecular target: T3, hCD28.mFc (REGN2012); test: SPR (Biacore) at 25 C; hCD28.mFc captured on anti-mFc, antibody injected
[9] = molecular target: T2, hEGFR(ECD).CPGG.MMH6 (REGN355); test: SPR (Biacore) at 37 C; antibody captured on anti-hFc, hEGFR.mmH injected
Experimental: SPR Kinetics Method: Kinetics binding parameters were determined via surface plasmon resonance (SPR) using a T-200 instrument and CM5 sensors (GE Healthcare). Double-referenced sensorgrams were globally fit to a 1:1 binding model using Scrubber (BioLogics Software). The dissociation rate constant (kd) was determined by fitting the change in the binding response during the dissociation phase, and the association rate constant (ka) was determined by fitting analyte binding at different concentrations. The KD was calculated from the ratio of the kd and ka.
A six-point, three-fold dilution series of hEGFR.mmH starting at 30 nM was injected over this surface at a flow rate of 50 uL/min for 5 minutes. Surface was regenerated with a 10 second pulse of 20 mM H3PO4. Dissociation was measured for 10 minutes. Sensorgrams were processed and fit as described above.

[10] = molecular target: T2, hEGFR(ECD).CPGG.MMH6 (REGN355); test: SPR (Biacore) at 25 C; antibody captured on anti-hFc, hEGFR.mmH injected
hCD28.mFc (REGN2012) [11] = molecular target: T3, hCD28.mFc (REGN2012); test: SPR (Biacore) at 37 C; hCD28.mFc captured on anti-mFc, antibody injected
Experimental: SPR Kinetics Method: Kinetics binding parameters were determined via surface plasmon resonance (SPR) using a T-200 instrument and CM5 sensors (GE Healthcare). Double-referenced sensorgrams were globally fit to a 1:1 binding model using Scrubber (BioLogics Software). The dissociation rate constant (kd) was determined by fitting the change in the binding response during the dissociation phase, and the association rate constant (ka) was determined by fitting analyte binding at different concentrations. The KD was calculated from the ratio of the kd and ka. The dissociative half-life (t½) was calculated as In2/kd and converted to minutes.
CD28 Capture Method Specifics: An anti-mFc polyclonal Ab (GE) was coupled to a CM5 sensor surface using traditional EDC/NHS coupling chemistry. ˜30RUs of hCD28.mFc were captured on this surface. […] Dissociation was measured for 5 minutes. Surface was regenerated with a 40 second injection of 10 mM glycine, pH 1.5. Sensorgrams were processed and fit as described above.

B1: mAb35193P2 (antibody, V domains shown)
VH: EVQLVESGGGLVKPGGSLRLSCTASGFSFRDAWMTWVRQVPGKGLEWVGRIRNKIDGGTTDYNTPVKDRFTISRDDSKNTLYLQMNSLKTEDTAVYYCTTDIWNYVLFYYYGLDVWGQGTTVTVSS
VL: not shown
EC50 [M] of increase of BaF3/hEGFR proliferation in presence of 0.5 nM hTGFβ (human EGFR on cells [1]): 9.14e-10 M | IC50 [M] of inhibition of BaF3/hEGFR proliferation in presence of 0.5 nM hEGF (human EGFR on cells [1]): 2.55e-09 M | Inhibition [%] of BaF3/hEGFR proliferation in presence of 0.5 nM hEGF (human EGFR on cells [1]): 29.6%

B2: mAb13006P2 (antibody, V domains shown)
VH: QVQLQESGPGLVKPSETLSLTCTVSDDSIISYYWSWIRQPPGKGLEWIGYIYYSGRTNYNPSLKSRVTISVDTSKNQVSLKLNSVIAADTAVYYCARVSEDSYYHYGMDVWGQGTTVTVSS
VL: not shown
IC50 [M] of inhibition of BaF3/hEGFR proliferation in presence of 0.5 nM hTGFβ (human EGFR on cells [1]): 6.55e-09 M | Inhibition [%] of BaF3/hEGFR proliferation in presence of 0.5 nM hEGF (human EGFR on cells [1]): 93.2% | Inhibition [%] of BaF3/hEGFR proliferation in presence of 0.5 nM hTGFβ (human EGFR on cells [1]): 97.2%

B5: REGN6321 (bispecific antibody, human IgG4 S228P, kappa)
heavy 1: EVQLVESGGGLVRPGGSLRLSCTASGFTFSTFIMFWVRQAPGKGLEYVSSISSNGGTIYYADSVKGRFTISRDNSKNTLYLQMGSLRAEDMAVYYCTRGGDFWSGYYPFDYWGQGTLVTVSSASTKGPSVFPLAPCSRSTSESTAALGCLVKDYFPEPVTVSWNSGALTSGVHTFPAVLQSSGLYSLSSVVTVPSSSLGTKTYTCNVDHKPSNTKVDKRVESKYGPPCPPCPAPPVAGPSVFLFPPKPKDTLMISRTPEVTCVVVDVSQEDPEVQFNWYVDGVEVHNAKTKPREEQFNSTYRVVSVLTVLHQDWLNGKEYKCKVSNKGLPSSIEKTISKAKGQPREPQVYTLPPSQEEMTKNQVSLTCLVKGFYPSDIAVEWESNGQPENNYKTTPPVLDSDGSFFLYSRLTVDKSRWQEGNVFSCSVMHEALHNHYTQKSLSLSLGK
heavy 2: QVQLQESGPGLVKPSETLSLTCTVSGGSISSYYWSWIRQPPGKGLEWIGYIYYSGITHYNPSLKSRVTISVDTSKIQFSLKLSSVTAADTAVYYCARWGVRRDYYYYGMDVWGQGTTVTVSSASTKGPSVFPLAPCSRSTSESTAALGCLVKDYFPEPVTVSWNSGALTSGVHTFPAVLQSSGLYSLSSVVTVPSSSLGTKTYTCNVDHKPSNTKVDKRVESKYGPPCPPCPAPPVAGPSVFLFPPKPKDTLMISRTPEVTCVVVDVSQEDPEVQFNWYVDGVEVHNAKTKPREEQFNSTYRVVSVLTVLHQDWLNGKEYKCKVSNKGLPSSIEKTISKAKGQPREPQVYTLPPSQEEMTKNQVSLTCLVKGFYPSDIAVEWESNGQPENNYKTTPPVLDSDGSFFLYSRLTVDKSRWQEGNVFSCSVMHEALHNRFTQKSLSLSPGK
light: not shown
notes: also called bsAb6321; EGFRxCD28
EC50 (human EGFR on cells [2]): 16.9 nM | EC50 (human EGFR on cells [3]): 5.42 nM | Kd [5]: 0.634 nM | koff [5]: 4.63e-05 s⁻¹ | kon [5]: 73000 M⁻¹ s⁻¹ | t½ [5]: 249 min | Kd (hCD28.mFc (REGN2012) [6]): 10.8 nM | koff (hCD28.mFc (REGN2012) [6]): 0.00281 s⁻¹ | kon (hCD28.mFc (REGN2012) [6]): 259000 M⁻¹ s⁻¹ | t½ (hCD28.mFc (REGN2012) [6]): 4.1 min

B6: REGN7075 (bispecific antibody, human IgG4 S228P, kappa)
heavy 1: QVQLQESGPGLVKPSETLSLTCTVSGDSIITFYWSWIRQPPGRGLEWIGYIYYSGITNYNPSLKSRVTISVDTSKNQVSLKLSSVTAADTAVYYCARVSEDSYFHYGMDVWGQGTTVTVSSASTKGPSVFPLAPCSRSTSESTAALGCLVKDYFPEPVTVSWNSGALTSGVHTFPAVLQSSGLYSLSSVVTVPSSSLGTKTYTCNVDHKPSNTKVDKRVESKYGPPCPPCPAPPVAGPSVFLFPPKPKDTLMISRTPEVTCVVVDVSQEDPEVQFNWYVDGVEVHNAKTKPREEQFNSTYRVVSVLTVLHQDWLNGKEYKCKVSNKGLPSSIEKTISKAKGQPREPQVYTLPPSQEEMTKNQVSLTCLVKGFYPSDIAVEWESNGQPENNYKTTPPVLDSDGSFFLYSRLTVDKSRWQEGNVFSCSVMHEALHNHYTQKSLSLSLGK
heavy 2: B5 heavy 2
light: not shown
notes: EGFR arm from mAb12999P2, CD28 arm from mAb14226; also called bsAb7075; H4sH24623D
EC50 (human EGFR on cells [2]): 2.05 nM | Kd (hCD28.mFc (REGN2012) [8]): 10.7 nM | koff (hCD28.mFc (REGN2012) [8]): 0.00314 s⁻¹ | kon (hCD28.mFc (REGN2012) [8]): 294000 M⁻¹ s⁻¹ | t½ (hCD28.mFc (REGN2012) [8]): 3.7 min | IL-2 Release MAX (pg/mL), human CD3+ T cells + NCI-H292 cells, with 20 nM IsoC-1 (human CD28 on cells): 12.7 pg/mL | IL-2 Release MAX (pg/mL), human CD3+ T cells + NCI-H292 cells, with 20 nM cemiplimab (human CD28 on cells): 27.2 pg/mL | Proliferation EC50 [M], human CD3+ T cells + NCI-H292 cells, with 20 nM IsoC-1 (human CD28 on cells): 3.92e-11 M | Proliferation EC50 [M], human CD3+ T cells + NCI-H292 cells, with 20 nM cemiplimab (human CD28 on cells): 2.16e-11 M | Proliferation MAX (CPM), human CD3+ T cells + NCI-H292 cells, with 20 nM IsoC-1 (human CD28 on cells): 1880 CPM | Proliferation MAX (CPM), human CD3+ T cells + NCI-H292 cells, with 20 nM cemiplimab (human CD28 on cells): 3250 CPM | Inhibition [%] of BaF3/hEGFR proliferation in presence of 0.5 nM hEGF (human EGFR on cells [1]): -6.8% | Inhibition [%] of BaF3/hEGFR proliferation in presence of 0.5 nM hTGFβ (human EGFR on cells [1]): 11.2% | Kd [9]: 0.933 nM | koff [9]: 0.000412 s⁻¹ | kon [9]: 441000 M⁻¹ s⁻¹ | Kd [10]: 2.8 nM | koff [10]: 0.000433 s⁻¹ | kon [10]: 154000 M⁻¹ s⁻¹ | t½ [10]: 26.7 min | Kd (hCD28.mFc (REGN2012) [11]): 51.7 nM | koff (hCD28.mFc (REGN2012) [11]): 0.0131 s⁻¹ | kon (hCD28.mFc (REGN2012) [11]): 254000 M⁻¹ s⁻¹ | t½ (hCD28.mFc (REGN2012) [11]): 0.9 min | EC50 (human EGFR on cells [7]): 1.22 nM

More lines, now with the values ahead:

IC50 [M] of inhibition of BaF3/hEGFR proliferation in presence of 0.5 nM hEGF (human EGFR on cells [1]): 1.98e-08 M | IC50 [M] of inhibition of BaF3/hEGFR proliferation in presence of 0.5 nM hTGFβ (human EGFR on cells [1]): 7.79e-09 M | Inhibition [%] of BaF3/hEGFR proliferation in presence of 0.5 nM hEGF (human EGFR on cells [1]): 91.8% | Inhibition [%] of BaF3/hEGFR proliferation in presence of 0.5 nM hTGFβ (human EGFR on cells [1]): 95.9%
B3: mAb12999P2 (antibody, V domains shown)
VH: B2 VH with D26G, S31T, Y32F, K43R, R56I, N83S, I86T, Y104F
VL: not shown

EC50 (human EGFR on cells [2]): 24.4 nM | IL-2 Release MAX (pg/mL), human CD3+ T cells + NCI-H292 cells, with 20 nM IsoC-1 (human CD28 on cells): 8.02 pg/mL | IL-2 Release MAX (pg/mL), human CD3+ T cells + NCI-H292 cells, with 20 nM cemiplimab (human CD28 on cells): 21.8 pg/mL | Proliferation MAX (CPM), human CD3+ T cells + NCI-H292 cells, with 20 nM IsoC-1 (human CD28 on cells): 1860 CPM | Proliferation MAX (CPM), human CD3+ T cells + NCI-H292 cells, with 20 nM cemiplimab (human CD28 on cells): 2380 CPM | EC50 (human EGFR on cells [3]): 4.64 nM | EC50 (human EGFR on cells [4]): 9.58 nM | EC50 [M] of increase of BaF3/hEGFR proliferation in presence of 0.5 nM hTGFβ (human EGFR on cells [1]): 3.67e-09 M | Kd [5]: 9.38 nM | koff [5]: 0.00146 s⁻¹ | kon [5]: 156000 M⁻¹ s⁻¹ | t½ [5]: 7.9 min | Kd (hCD28.mFc (REGN2012) [6]): 10.3 nM | koff (hCD28.mFc (REGN2012) [6]): 0.00268 s⁻¹ | kon (hCD28.mFc (REGN2012) [6]): 261000 M⁻¹ s⁻¹ | t½ (hCD28.mFc (REGN2012) [6]): 4.3 min | EC50 (human EGFR on cells [7]): 5.77 nM
B4: REGN6322 (bispecific antibody, human IgG4 S228P, kappa)
heavy 1: EVQLVESGGGLVKPGGSLRLSCTASGFSFRDAWMTWVRQVPGKGLEWVGRIRNKIDGGTTDYNTPVKDRFTISRDDSKNTLYLQMNSLKTEDTAVYYCTTDIWNYVLFYYYGLDVWGQGTTVTVSSASTKGPSVFPLAPCSRSTSESTAALGCLVKDYFPEPVTVSWNSGALTSGVHTFPAVLQSSGLYSLSSVVTVPSSSLGTKTYTCNVDHKPSNTKVDKRVESKYGPPCPPCPAPPVAGPSVFLFPPKPKDTLMISRTPEVTCVVVDVSQEDPEVQFNWYVDGVEVHNAKTKPREEQFNSTYRVVSVLTVLHQDWLNGKEYKCKVSNKGLPSSIEKTISKAKGQPREPQVYTLPPSQEEMTKNQVSLTCLVKGFYPSDIAVEWESNGQPENNYKTTPPVLDSDGSFFLYSRLTVDKSRWQEGNVFSCSVMHEALHNHYTQKSLSLSLGK
heavy 2: B5 heavy 2
light: not shown
notes: EGFR arm from mAb35193P2, CD28 arm from mAb14226; also called bsAb6322; EGFRxCD28
